Legend:
[1] = test system: PKGIα (analogue-sensitive M438G), disulfide-activated; assay: Chemical genetic phosphoproteomic screen, disulfide-activated PKGIα M438G versus unactivated control; assay type: biochemical, human PKGIα; substrates in rat heart homogenate; conditions: control = PKGIα C42S/M438G
In short: (§1)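 Analogue-sensitive human PKGIα mutants (M438G, air-oxidized to disulfide dimer; C42S/M438G, cGMP-activated), expressed in 293-F cells, thiophosphorylate substrates in rat left-ventricle lysate (20 mg ml) using N6-alkylated ATPγS. Thiophosphopeptides are recovered by covalent capture and identified with sites by LC–MS/MS, each compared against an unactivated control.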

[2] = test system: PKGIα (analogue-sensitive C42S/M438G), cGMP-activated; assay: Chemical genetic phosphoproteomic screen, cGMP-activated PKGIα C42S/M438G versus unactivated control; assay type: biochemical, human PKGIα; substrates in rat heart homogenate; conditions: control = PKGIα C42S/M438G
In short: as §1

B1: Pfkfb2 pS486 (protein, UniProt Q9JJH5 2-557, looked up)
6-phosphofructo-2-kinase/fruct …: SENSTFSTEDSSSSSYKPHASNLRRAGKKCSWASYMTNSPTLIVMIGLPARGKTYVSKKLTRYLNWIGVPTKVFNLGVYRREAVKSYKSYDFFRHDNEEAMKIRKQCALVALEDVKAYFTEESGQIAVFDATNTTRERRDMILNFAKQNAFKVFFVESVCDDPDVIAANILEVKVSSPDYPERNRENVMEDFLKRIECYKVTYQPLDPDNYDKDLSFIKVMNVGQRFLVNRVQDYIQSKIVYYLMNIHVHPRTIYLCRHGESEFNLLGKIGGDSGLSLRGKQFAQALKKFLEEQEIQDLKVWTSQLKRTIQTAESLGVTYEQWKILNEIDAGVCEEMTYSEIEQRYPEEFALRDQEKYLYRYPGGESYQDLVQRLEPVIMELERQGNVLVISHQAVMRCLLAYFLDKGADELPYLRCPLHIIFKLTPVAYGCKVETITLNVEAVDTHRDKPTHNFPKSQTPVRMRRNSFTPLSSSNTIRRPRNYSVGSRPLKPLSPLRALDMQEGADQPKTQVQQGSAQATEHLQKALEFANGHREVENVLAKHRRPSMASLTLLS
modifications: phosphorylated at S486
- log2 fold change Disulfide vs Control [1]: -0.4793
- log2 fold change cGMP vs Control [2]: 0.2997

Source: article PMC5095173, “Disulfide-activated protein kinase G Iα regulates cardiac diastolic relaxation and fine-tunes the Frank–Starling response” (Nature Communications, 2016)
